Test results taken from patent US20150267232A1, “IN VIVO AND IN VITRO CARBENE INSERTION AND NITRENE TRANSFER REACTIONS CATALYZED BY HEME ENZYMES” (California Institute of Technology, priority 2012, published 2015).
“And” between values parts separate entries of the source, which are not always exact repeats. Equal entries are not always repeated.

What was measured:
[1] = Small-scale anaerobic C—H amination with purified enzymes, azide 1; format: biochemical; details: for Product (3) / TTN on substrate 1: 1% loading of hemin; for Product (3): 0.1% loading, TTN
In short: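 Purified P450 or P411 enzymes (0.1-0.5% catalyst loading) in 400 μL reactions of 0.1 M potassium phosphate pH 8.0 with a catalase/glucose oxidase oxygen-depletion system were made anaerobic under argon, given 10 μL of 80 mM arylsulfonyl azide in DMSO, and stirred 24 h at room temperature. After HCl quench and acetonitrile addition, sultam was quantified by HPLC at 220 nm against an internal standard; enantioselectivity was measured by chiral HPLC.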

[2] = Small-scale anaerobic C—H amination with purified enzymes, azide 6; format: biochemical; details: for Product (7): 0.1% loading, azide 6
Procedure: Hemin also was capable of catalyzing this reaction when reduced with dithionite (Table 13).
Small scale reactions containing either 0.1% loading of ABC-CIS or ABC-T268A or 1% loading of hemin with azides 1, 4, or 6 according to standard procedures.
Small-scale reactions (400 μL) were conducted in 2 mL crimp vials (Agilent Technologies, San Diego, Calif.) containing buffer (0.1 M potassium phosphate pH 8.0), enzyme (0.1-0.5% catalyst loading) and oxygen depletion system (10× stock solution containing 14,000 U/mL catalase, 1,000 U/mL glucose oxidase dissolved in 0.1 M KPi pH 8.0). Enzyme (P450 or P411) solution and oxygen depletion mixture were added to the vial with a small stir bar before crimp-sealing. Portions of phosphate buffer (190 μL, 0.1 M, pH=8.0), glucose (40 μL, 250 mM) and NADPH (40 μL, 20 mM), or multiples thereof, were combined in a larger crimp sealed vial and degassed by sparging with argon for at least 5 min. In the meantime, the headspace of the sealed 2 mL reaction vial with the P450 solution was made anaerobic by flushing argon over the protein solution (with no bubbling). The buffer/reductant/glucose solution (270 μL) was syringed into the reaction vial with continuous argon purge of the vial headspace. An arylsulfonyl azide solution in DMSO (10 μL, 80 mM) was added to the reaction vial via a glass syringe, and the reaction was left stirring for 24 h at room temperature under positive argon pressure. Final concentrations of the reagents were typically: 2 mM arylsulfonyl azide, 2 mM NADPH, 25 mM glucose, 2 or 10 μM P450. Reactions were quenched by adding 30 μL 3 M HCl under argon. To the vials were then added acetonitrile (430 uL) and internal standard (o-toluenesulfonamide 10 mM in 50% acetonitrile 50% water, 1 mM final concentration). […] A portion (20 μL) of the supernatant was then analyzed by HPLC. […] Sultam formation was quantified comparison of integrated peak areas of internal standard and sultam at 220 nm to a calibration curve made using synthetically produced sultam and internal standard.

[3] = 0.1 mol % catalyst loading (2 μM), 2 mM azide 1, 2 mM NADPH, benzosultam 3
[4] = 0.1 mol % catalyst loading, (S−R)/(S+R), benzosultam 3
[5] = CS heme-Na2S2O4 + NADPH (heme domain)
[6] = Complete system (CS), holoenzyme
[7] = catalyst loading 0.5 mol %, NADPH, anaerobic

Molecule: hemin
- Product (3) / TTN on substrate 1 [1]: 3.1
- Product (3) / TTN on substrate 1 ([1]; listed as hemin): 3
- % activity ([1]; CS-P450 + Hemin): 0%
- TTN ([1]; CS-P450 + Hemin (2 μM hemin)): 0
- stereochemical outcome of product 3 ([1]; reaction with hemin): racemic
- Product (7) / TTN on substrate 6 ([2]; 1% loading of hemin): 55

B1: ABC-T268A: P450BM3 variant: T268A, C400S (protein, listed as Bacillus megaterium)
chain: TIKEMPQPKTFGELKNLPLLNTDKPVQALMKIADELGEIFKFEAPGRVTRYLSSQRLIKEACDESRFDKNLSQALKFVRDFAGDGLFTSWTHEKNWKKAHNILLPSFSQQAMKGYHAMMVDIAVQLVQKWERLNADEHIEVPEDMTRLTLDTIGLCGFNYRFNSFYRDQPHPFITSMVRALDEAMNKLQRANPDDPAYDENKRQFQEDIKVMNDLVDKIIADRKASGEQSDDLLTHMLNGKDPETGEPLDDENIRYQIITFLIAGHEATSGLLSFALYFLVKNPHVLQKAAEEAARVLVDPVPSYKQVKQLKYVGMVLNEALRLWPTAPAFSLYAKEDTVLGGEYPLEKGDELMVLIPQLHRDKTIWGDDVEEFRPERFENPSAIPQHAFKPFGNGQRASIGQQFALHEATLVLGMMLKHFDFEDHTNYELDIKETLTLKPEGFVVKAKSKKIPLGGIPSPSTEQSAKKVRKKAENAHNTPLLVLYGSNMGTAEGTARDLADIAMSKGFAPQVATLDSHAGNLPREGAVLIVTASYNGHPPDNAKQFVDWLDQASADEVKGVRYSVFGCGDKNWATTYQKVPAFIDETLAAKGAENIADRGEADASDDFEGTYEEWREHMWSDVAAYFNLDIENSEDNKSTLSLQFVDSAADMPLAKMHGAFSTNVVASKELQQPGSARSTRHLEIELPKEASYQEGDHLGVIPRNYEGIVNRVTARFGLDASQQIRLEAEEEKLAHLPLAKTVSVEELLQYVELQDPVTRTQLRAMAAKTVCPPHKVELEALLEKQAYKEQVLAKRLTMLELLEKYPACEMKFSEFIALLPSIRPRYYSISSSPRVDEKQASITVSVVSGEAWSGYGEYKGIASNYLAELQEGDTITCFISTPQSEFTLPKDPETPLIMVGPGTGVAPFRGFVQARKQLKEQGQSLGEAHLYFGCRSPHEDYLYQEELENAQSEGIITLHTAFSRMPNQPKTYVQHVMEQDGKKLIELLDQGAHFYICGDGSQMAPAVEATLMKSYADVHQVSEADARLWLQQLEEKGRYAKDVWAG
modifications: cytochrome P450NADPH-P-450 reductase precursor, cytochrome P450 (BM3), CYP102A1
notes: P450BM3 variant: T268A, C400S
- Product (3) ([1]; azide 1): 135
- TTN [1, 3]: 120
- % ee [1, 4]: 58%
- % activity ([1]; Boiled P450heme): 9.1%
- % ee ([1]; Boiled P450heme): 3%
- TTN ([1]; Boiled P450heme): 10
- % activity ([1]; Boiled P450holo): 30%
- % ee ([1]; Boiled P450holo): 1%
- TTN ([1]; Boiled P450holo): 33
- % activity ([1]; CS + CO): 4.4%
- TTN ([1]; CS + CO): 5
- % activity ([1]; CS aerobic): 9.1%
- % ee ([1]; CS aerobic): 60%
- TTN ([1]; CS aerobic): 10
- % activity ([1]; CS heme): 145%
- % ee ([1]; CS heme): 91%
- TTN ([1]; CS heme (heme domain, 2 mM Na2S2O4)): 160
- % activity ([1]; CS heme + CO): 0%
- TTN ([1]; CS heme + CO): 0
- % activity ([1]; CS heme aerobic): 0%
- TTN ([1]; CS heme aerobic): 0
- % activity [1, 5]: 3.6%
- TTN [1, 5]: 4
- % ee ([1]; CS-NADPH + Na2S2O4): 44%
- TTN ([1]; CS-NADPH + Na2S2O4): 130
- % activity ([1]; CS-NADPH + Na2S2O4, residual activity (CS = 100%)): 120%
- % ee [1, 6]: 38%
- TTN [1, 6]: 110
- activity with reductant NADPH ([1]; NADPH (2 mM), 0.1 mol % loading, azide 1): 110
- activity with reductant Dithionite ([1]; dithionite (2 mM), 0.1 mol % loading, azide 1): 110
- Product (7) [2]: 27

B2: ABC-CIS: BM3-CIS + C400S (protein, listed as Bacillus megaterium)
chain: TIKEMPQPKTFGELKNLPLLNTDKPVQALMKIADELGEIFKFEAPGRVTRYLSSQRLIKEACDESRFDKNLSQALKFARDFAGDGLVTSWTHEKNWKKAHNILLPSFSQQAMKGYHAMMVDIAVQLVQKWERLNADEHIEVSEDMTRLTLDTIGLCGFNYRFNSFYRDQPHPFIISMVRALDEVMNKLQRANPDDPAYDENKRQFQEDIKVMNDLVDKIIADRKARGEQSDDLLTQMLNGKDPETGEPLDDGNIRYQIITFLIAGHEATSGLLSFALYFLVKNPHVLQKVAEEAARVLVDPVPSYKQVKQLKYVGMVLNEALRLWPTAPAFSLYAKEDTVLGGEYPLEKGDEVMVLIPQLHRDKTVWGDDVEEFRPERFENPSAIPQHAFKPFGNGQRASIGQQFALHEATLVLGMMLKHFDFEDHTNYELDIKETLTLKPKGFVVKAKSKKIPLGGIPSPSTEQSAKKVRKKAENAHNTPLLVLYGSNMGTAEGTARDLADIAMSKGFAPQVATLDSHAGNLPREGAVLIVTASYNGHPPDNAKQFVDWLDQASADEVKGVRYSVFGCGDKNWATTYQKVPAFIDETLAAKGAENIADRGEADASDDFEGTYEEWREHMWSDVAAYFNLDIENSEDNKSTLSLQFVDSAADMPLAKMHGAFSTNVVASKELQQPGSARSTRHLEIELPKEASYQEGDHLGVIPRNYEGIVNRVTARFGLDASQQIRLEAEEEKLAHLPLAKTVSVEELLQYVELQDPVTRTQLRAMAAKTVCPPHKVELEALLEKQAYKEQVLAKRLTMLELLEKYPACEMKFSEFIALLPSIRPRYYSISSSPRVDEKQASITVSVVSGEAWSGYGEYKGIASNYLAELQEGDTITCFISTPQSEFTLPKDPETPLIMVGPGTGVAPFRGFVQARKQLKEQGQSLGEAHLYFGCRSPHEDYLYQEELENAQSEGIITLHTAFSRMPNQPKTYVQHVMEQDGKKLIELLDQGAHFYICGDGSQMAPAVEATLMKSYADVHQVSEADARLWLQQLEEKGRYAKDVWAG
modifications: cytochrome P450NADPH-P-450 reductase precursor, cytochrome P450 (BM3), CYP102A1
notes: BM3-CIS + C400S
- Product (3) ([1]; azide 1): 310
- TTN [1, 3]: 313 and 310
- % ee [1, 4]: 67%
- TTN ([1]; [NADPH] 0 mM): 0
- [sultam] ([1]; [NADPH] 0 mM): 0 mM
- TTN ([1]; [NADPH] 0.01 mM): 27
- [sultam] ([1]; [NADPH] 0.01 mM): 0.053 mM
- TTN ([1]; [NADPH] 0.02 mM): 82
- [sultam] ([1]; [NADPH] 0.02 mM): 0.164 mM
- TTN ([1]; [NADPH] 0.1 mM): 243
- [sultam] ([1]; [NADPH] 0.1 mM): 0.486 mM
- TTN ([1]; [NADPH] 2 mM): 161
- [sultam] ([1]; [NADPH] 2 mM, 0.1 mol % loading): 0.322 mM
- TTN (C—H amination product 3) [1, 7]: over 140
- yield of 3 by HPLC [1, 7]: 73%
- Product (7) [2]: 36
